Laboratory results: publication PMC4353693

Tests used:
[1] = target: actin binding domain of plectin isoform 1a (P1aABD); assay: ITC
[2] = target: actin binding domain of plectin isoform 1a (P1aABD); assay: SAXS

B1: first two FnIII domains of integrin β4 (β4Fn12; 1126–1355) (domain or fragment)
chain: DLGAPQNPNAKAAGSRKIHFNWLPPSGKPMGYRVKYWIQGDSESEAHLLDSKVPSVELTNLYPYCDYEMKVCAYGAQGEGPYSSLVSCRTHQEVPSEPGRLAFNVVSSTVTQLSWAEPAETNGEITAYEVCYGLVNDDNRPIGPMKKVLVDNPKNRMLLIENLRESQPYRYTVKARNGAGWGPEREAIINLATQPKRPMSIPIIPDIPIVDAQSGEDYDSFLMYSDDVLR
For B1, the Kd [1] was 41.7 µM, the dH [1] was 3.69 kcal/mol and the volume fraction of the complex in solution (SAXS, OLIGOMER) [2] was 54%.
